The nature of data set [1]: Photolysis release of insulin from conjugate vs irradiation time. It counts as physicochemical. As to the method: (§1) Diazo was allowed to react for 24 hours. Reaction progress may be monitored on HPLC with a C18 column.
Data set [2] in a line: Solubility of non-polar-tag insulin conjugates vs insulin (shaken with PBS pH 7.2, supernatant analyzed). Here is the method:
as §1
It was hypothesized solubility would be further lowered by the Val-Val-Val peptide being allowed to pack more efficiently than in the Val-Pro-Ile peptide.

Data set [3] can be described thus: Photolysis of G2PEA-insulin dissolved in DMSO, analyzed by gel. Format: physicochemical. Particulars: over the irradiation time period, FIG. 35. The source says: The lower band is insulin.
Data set [4] can be described thus: Isoelectric point (IEF gel). Particulars: FIG. 33. It counts as physicochemical.
A short description of data set [5]: Quantitative solubility of G2PEA-insulin and insulin in buffer at pH 7.2 and pH 5.4.
The conditions of data set [6]: stated in description, no experiment; cited from earlier work.

Like-named read-outs stand apart in the source and are kept apart here.

As to “CD-insulin: drug conjugate of insulin and a cyclododecyl amine non-polar moiety joined by a DMNPE-type photocleavable group”, the “photolysis release rate constant k” value in data set [1] (FIG. 7, insulin released into solution v. irradiation time) is 0.154 min-; in data set [1] (fit B=A0(1−exp(−kt)), FIG. 19) it was 0.154 min⁻¹. The “Solubility mM” value in data set [2] (Table 3) and in data set [2] (Table 5) was 0.009 mM throughout. Besides, the “Solubility mg/ml” value in data set [2] (Table 3) and in data set [2] (Table 5) was 0.06 mg/mL throughout.
“G2PEA-insulin drug conjugate: drug conjugate of insulin and glutamic acid condensed with two 1-(2-Aminoethyl)pyrrolidine moieties (G2PEA), photocleavable link”: the “conversion to insulin upon irradiation” value in data set [3] was “all of the G2PEA insulin is consumed, and insulin is released”. In data set [4], the isoelectric point is around 7.
In general, Solubility refers to the dissolved amount per volume that the medium holds. Low readings indicate a poorly soluble substance, high ones a readily soluble substance. Regarding insulin [reference compound], the “Solubility mM” value in data set [2] (Table 3) and in data set [2] (Table 5) was 0.708 mM in each case. In addition, the “Solubility mg/ml” value in data set [2] (Table 3) and in data set [2] (Table 5) was 4.11 mg/mL each time. Also, the Solubility in data set [5] (Table 7, pH 7.2 buffer) stood at 1053.3 ± 158.1 µM; in data set [5] (Table 8, pH 5.4) it was 17.1 ± 2.1 µM. In addition, the isoelectric point in data set [6] is around 5.4.

These data come from patent US20200147215A1, “DRUG CONJUGATES WITH PHOTOCLEAVABLE SOLUBILITY MODULATORS” (priority 2017, published 2020).
